This passage reports Tm results from the array DNA melting data of Ke et al..

The nature of the data set: melting temperature; UV melt of duplexes.

As for “AAAGTACATCAACATAGAGAATTGCATTTC+GAAATGCAATTCTCTATGTTGATGTACTTT ((((((((((((((((((((((((((((((+))))))))))))))))))))))))))))))”, the Tm amounted to 58.3 °C (sodium 0.07 M, strand 2 µM); 61.9 °C (sodium 0.12 M, strand 2 µM); 66.1 °C (sodium 0.22 M, strand 2 µM); 71.3 °C (sodium 0.62 M, strand 2 µM); 73.2 °C (sodium 1.02 M, strand 2 µM).
In the case of “GTATAACCGGTTATAC+GTATAACCGGTTATAC ((((((((((((((((+))))))))))))))))”, where the note is “sodium 1 M, strand 0.0001 M”, the Tm worked out at 65.9 °C.
“CGCAAAAAAAAAACGC+GCGTTTTTTTTTTGCG ((((((((((((((((+))))))))))))))))”: the midpoint of thermal melting (Tm) (sodium 0.1 M, strand 4 µM) was found to be 54.1 °C.
Turning to “CATATTGGCCAATATG+CATATTGGCCAATATG ((((((((((((((((+))))))))))))))))”, under “sodium 1 M, strand 0.0001 M”, the Tm came to 65.3 °C.
In the case of “ACCGACGACGCTGATCCGAT+ATCGGATCAGCGTCGTCGGT ((((((((((((((((((((+))))))))))))))))))))”, the midpoint of thermal melting (Tm) reads like this: (sodium 0.07 M, strand 2 µM) 66 °C; (sodium 0.12 M, strand 2 µM) 69.1 °C; (sodium 0.22 M, strand 2 µM) 72.6 °C; (sodium 0.62 M, strand 2 µM) 76.8 °C; (sodium 1.02 M, strand 2 µM) 77.3 °C.
On the same counts, the results for “TGATTCTACCTATGTGATTT+AAATCACATAGGTAGAATCA ((((((((((((((((((((+))))))))))))))))))))” are 49.1 °C, 53.5 °C, 57.4 °C, 62.3 °C and 64.4 °C.
The like results for “TCGGAGAAATCACTGAGCTGCCTGAGAAGA+TCTTCTCAGGCAGCTCAGTGATTTCTCCGA ((((((((((((((((((((((((((((((+))))))))))))))))))))))))))))))” were, in that order, 66.3 °C, 70.4 °C, 74.1 °C, 79 °C and 80.9 °C.
The like results for “ACAGCGAATGGACCTACGTGGCCTT+AAGGCCACGTAGGTCCATTCGCTGT (((((((((((((((((((((((((+)))))))))))))))))))))))))” were, in that order, 68.1 °C, 72.1 °C, 76 °C, 79.4 °C and 81 °C.
For the substance “AAGGCGAGTCAGGCTCAGTG+CACTGAGCCTGACTCGCCTT ((((((((((((((((((((+))))))))))))))))))))”, the midpoint of thermal melting (Tm) reads like this: (sodium 0.07 M, strand 2 µM) 64.5 °C; (sodium 0.12 M, strand 2 µM) 67.7 °C; (sodium 0.22 M, strand 2 µM) 71.4 °C; (sodium 0.62 M, strand 2 µM) 75.1 °C; (sodium 1.02 M, strand 2 µM) 76.3 °C.
Consider “AATATCTCTCATGCGCCAAGCTACA+TGTAGCTTGGCGCATGAGAGATATT (((((((((((((((((((((((((+)))))))))))))))))))))))))”, for which the midpoint of thermal melting (Tm) reads like this: (sodium 0.07 M, strand 2 µM) 62.1 °C; (sodium 0.12 M, strand 2 µM) 65.7 °C; (sodium 0.22 M, strand 2 µM) 70.3 °C; (sodium 0.62 M, strand 2 µM) 75.1 °C; (sodium 1.02 M, strand 2 µM) 76.5 °C.
With “TATTGAGAACAAGTGTCCGATTAGCAGAAA+TTTCTGCTAATCGGACACTTGTTCTCAATA ((((((((((((((((((((((((((((((+))))))))))))))))))))))))))))))”, the melting temperature (Tm) was found to be 61.3 °C (sodium 0.07 M, strand 2 µM); 65.4 °C (sodium 0.12 M, strand 2 µM); 69.6 °C (sodium 0.22 M, strand 2 µM); 74.8 °C (sodium 0.62 M, strand 2 µM); 76.4 °C (sodium 1.02 M, strand 2 µM).
The like results for “TTCAAGTTAAACATTCTATC+GATAGAATGTTTAACTTGAA ((((((((((((((((((((+))))))))))))))))))))” were, in that order, 45.7 °C, 49.5 °C, 53.9 °C, 59.4 °C and 61.5 °C.
“AACGTGAATTCTGGCA+TGCCAGAATTCACGTT ((((((((((((((((+))))))))))))))))”: for the setting “sodium 0.12 M, strand 7.4 µM”, the melting temperature (Tm) was found to be 58.3 °C.
Consider “GTTCTATACTCTTGAAGTTGATTAC+GTAATCAACTTCAAGAGTATAGAAC (((((((((((((((((((((((((+)))))))))))))))))))))))))”, for which the midpoint of thermal melting (Tm) reads like this: (sodium 0.07 M, strand 2 µM) 52.7 °C; (sodium 0.12 M, strand 2 µM) 56.1 °C; (sodium 0.22 M, strand 2 µM) 60.6 °C; (sodium 0.62 M, strand 2 µM) 66.1 °C; (sodium 1.02 M, strand 2 µM) 67.7 °C.
With “CCACTATACCATCTATGTAC+GTACATAGATGGTATAGTGG ((((((((((((((((((((+))))))))))))))))))))”, the melting temperature (Tm) turned out to be 51.1 °C (sodium 0.07 M, strand 2 µM); 54.6 °C (sodium 0.12 M, strand 2 µM); 58.4 °C (sodium 0.22 M, strand 2 µM); 62.2 °C (sodium 0.62 M, strand 2 µM); 64.4 °C (sodium 1.02 M, strand 2 µM).
For “ATATATATAGCTATATATAT+ATATATATAGCTATATATAT ((((((((((((((((((((+))))))))))))))))))))”, the Tm (sodium 0.12 M, strand 5 µM) was determined as 44.8 °C.
Regarding “GTAGAATTCTTTTCCTTCTAGATCG+CGATCTAGAAGGAAAAGAATTCTAC (((((((((((((((((((((((((+)))))))))))))))))))))))))”, the midpoint of thermal melting (Tm) (sodium 0.1 M, strand 1 µM) stood at 62 °C.
Regarding “ATATATATAGCTTTTTTTTT+AAAAAAAAAGCTATATATAT ((((((((((((((((((((+))))))))))))))))))))”, the Tm (sodium 0.12 M, strand 6 µM) was found to be 44.3 °C.
Turning to “AATATATGAATTCTAATTAA+TTAATTAGAATTCATATATT ((((((((((((((((((((+))))))))))))))))))))”, where the note is “sodium 0.12 M, strand 6 µM”, the midpoint of thermal melting (Tm) was 44.7 °C.
For “CGCCGCTGCCGACTGGAGGAGCGCGGGACG+CGTCCCGCGCTCCTCCAGTCGGCAGCGGCG ((((((((((((((((((((((((((((((+))))))))))))))))))))))))))))))”, the Tm is 77.8 °C (sodium 0.07 M, strand 2 µM); 81.6 °C (sodium 0.12 M, strand 2 µM); 84.6 °C (sodium 0.22 M, strand 2 µM); 87.7 °C (sodium 0.62 M, strand 2 µM); 88.6 °C (sodium 1.02 M, strand 2 µM).
On the same counts, the results for “AACCTGCAACATGGAGTTTTTGTCTCATGC+GCATGAGACAAAAACTCCATGTTGCAGGTT ((((((((((((((((((((((((((((((+))))))))))))))))))))))))))))))” are 64.5 °C, 68.3 °C, 72.5 °C, 77.7 °C and 78.7 °C.
As to “AAAAAAAGCTTTTTTT+AAAAAAAGCTTTTTTT ((((((((((((((((+))))))))))))))))”, for the setting “sodium 0.12 M, strand 5 µM”, the Tm is 44 °C.
Turning to “GACGACGACGACGACGACGACGACGACGAC+GTCGTCGTCGTCGTCGTCGTCGTCGTCGTC ((((((((((((((((((((((((((((((+))))))))))))))))))))))))))))))”, the Tm (sodium 0.15 M, strand 0.0001 M) was 83 °C.
For “AACGCGCGTGAATTCTGGCCGCAA+TTGCGGCCAGAATTCACGCGCGTT ((((((((((((((((((((((((+))))))))))))))))))))))))”, for the setting “sodium 0.12 M, strand 6 µM”, the Tm stood at 75.8 °C.
Take “AACGCGCGTAGAGTAATTATAA+TTATAATTACTCTACGCGCGTT ((((((((((((((((((((((+))))))))))))))))))))))”: under “sodium 0.12 M, strand 6 µM”, the Tm stood at 65 °C.
With “ACGGGTCCCCGCACCGCACCGCCAG+CTGGCGGTGCGGTGCGGGGACCCGT (((((((((((((((((((((((((+)))))))))))))))))))))))))”, the Tm runs as follows: (sodium 0.07 M, strand 2 µM) 76.8 °C; (sodium 0.12 M, strand 2 µM) 79.9 °C; (sodium 0.22 M, strand 2 µM) 84 °C; (sodium 0.62 M, strand 2 µM) 87.1 °C; (sodium 1.02 M, strand 2 µM) 88.3 °C.
On the same counts, the results for “CTCAACTTGCGGTAAATAAATCGCTTAATC+GATTAAGCGATTTATTTACCGCAAGTTGAG ((((((((((((((((((((((((((((((+))))))))))))))))))))))))))))))” are 60.9 °C, 64.8 °C, 68.7 °C, 74.4 °C and 75.5 °C.
As to “AGAAGGGAGAGAAAAAGAAA+TTTCTTTTTCTCTCCCTTCT ((((((((((((((((((((+))))))))))))))))))))”, the Tm (sodium 1 M, strand 2 µM) turned out to be 61.9 °C.
With “CGCGCGCGACTGACTG+CAGTCAGTCGCGCGCG ((((((((((((((((+))))))))))))))))”, for the setting “sodium 0.12 M, strand 44 µM”, the Tm came out at 69.4 °C.
As for “GCGAGCGACAGGTTACTTGGCTGAT+ATCAGCCAAGTAACCTGTCGCTCGC (((((((((((((((((((((((((+)))))))))))))))))))))))))”, the Tm (sodium 0.07 M, strand 2 µM) turned out to be 67 °C; the Tm (sodium 0.12 M, strand 2 µM) stood at 70.8 °C; the Tm (sodium 0.22 M, strand 2 µM) came to 74.7 °C; the melting temperature (Tm) (sodium 0.62 M, strand 2 µM) stood at 78.6 °C; the Tm (sodium 1.02 M, strand 2 µM) amounted to 80.1 °C.
Regarding “ACTGATTAGGATCCATATGTCA+TGACATATGGATCCTAATCAGT ((((((((((((((((((((((+))))))))))))))))))))))”, under “sodium 0.12 M, strand 5 µM”, the Tm came out at 58.3 °C.
As for “ATAAAAATGAATTCATTTTTAT+ATAAAAATGAATTCATTTTTAT ((((((((((((((((((((((+))))))))))))))))))))))”, the Tm (sodium 0.12 M, strand 7 µM) is 52.8 °C.
For “ATAACTTTACGTGTGTGACCTATTA+TAATAGGTCACACACGTAAAGTTAT (((((((((((((((((((((((((+)))))))))))))))))))))))))”, the Tm is, setting by setting: (sodium 0.07 M, strand 2 µM) 56.6 °C; (sodium 0.12 M, strand 2 µM) 60.7 °C; (sodium 0.22 M, strand 2 µM) 64.7 °C; (sodium 0.62 M, strand 2 µM) 69.6 °C; (sodium 1.02 M, strand 2 µM) 71.8 °C.
The like results for “CGAGCTTATCCCTATCCCTC+GAGGGATAGGGATAAGCTCG ((((((((((((((((((((+))))))))))))))))))))” were, in that order, 56 °C, 60.2 °C, 64.1 °C, 68.5 °C and 70.3 °C.
